Biological target: the molecule itself
Assay: negative stain TEM

B1: IsiA protein of Synechocystis sp. PCC 6803 (natural protein)
chain: not shown
stoichiometry N: 18

— PMC6699766 (Nature plants, 2019)
